In patent US12024547B2, “KLK5 inhibitory peptide” (DAIICHI SANKYO COMPANY, LIMITED, priority 2018, dated 2024):
Residue numbers refer to the chain shown, from its start.

T1: KLK5 (Homo sapiens, UniProt Q9Y337)
T1 construct: “Active KLK5” means active KLK5, which is composed of a domain having a protease activity; His tag (C); FLAG (Gly-DYKDDDDK before the His tag); made in house; host or cells: Expi293F cells
T1 sequence (Q9Y337 67-293): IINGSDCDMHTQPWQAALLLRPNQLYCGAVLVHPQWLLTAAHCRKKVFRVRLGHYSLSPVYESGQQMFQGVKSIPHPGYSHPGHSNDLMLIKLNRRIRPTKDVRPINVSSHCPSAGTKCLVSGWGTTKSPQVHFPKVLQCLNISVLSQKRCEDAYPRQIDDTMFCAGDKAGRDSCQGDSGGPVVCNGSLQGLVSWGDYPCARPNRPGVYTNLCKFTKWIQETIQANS

T2: human KLK14 (Homo sapiens, UniProt Q9P0G3)
T2 construct: His tag (C); FLAG (Gly-DYKDDDDK before the His tag); made in house; host or cells: Expi293F cells
T2 sequence (Q9P0G3 25-251): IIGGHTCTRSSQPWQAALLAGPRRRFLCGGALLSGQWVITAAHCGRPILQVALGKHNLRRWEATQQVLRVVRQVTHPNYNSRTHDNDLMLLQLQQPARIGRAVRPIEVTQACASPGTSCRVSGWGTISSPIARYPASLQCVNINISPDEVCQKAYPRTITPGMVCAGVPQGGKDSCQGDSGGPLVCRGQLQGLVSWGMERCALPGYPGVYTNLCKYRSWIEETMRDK

B1: K51034: KLK5 inhibitory peptide (SPINK2 mutant), amino acid sequence SEQ ID NO: 14 (protein)
chain: GPQFGLFSKYRTPNCGRYTTGGCNKEYEPVCGSDMSTYANECTLCMKIREGGHNIKIIRNGPCGG
B2: K51090: KLK5 inhibitory peptide (SPINK2 mutant), amino acid sequence SEQ ID NO: 18 (protein)
chain: GPQFGLFSKYRTPNCDEIGKYGCGRSYDPVCGSDMSTYANECTLCMKIREGGHNIKIIRNGPCGG
B3: K50055: KLK5 inhibitory peptide (SPINK2 mutant), amino acid sequence SEQ ID NO: 8 (protein)
chain: B2 chain with D16A, E17N, I18T, G19M, Y21Q, G22D, G24T, S26E
B4: K50016: KLK5 inhibitory peptide (SPINK2 mutant), amino acid sequence SEQ ID NO: 12 (protein)
chain: GPQFGLFSKYRTPNCSQWQYSSCDRVYDPVCGSDMSTYANECTLCMKIREGGHNIKIIRNGPCGG
B5: K50032: KLK5 inhibitory peptide (SPINK2 mutant), amino acid sequence SEQ ID NO: 6 (protein)
chain: B4 chain with S16L, Q17N, Q19T, Y20D, S21H, S22Q, D24E, V26D
B6: K51028: KLK5/KLK7 inhibitory peptide (SPINK2 mutant), amino acid sequence SEQ ID NO: 22 (protein)
chain: B1 chain with G16Y, R17Q, T19R, T20S, G21K, N24T, K25H, E28D
B7: K50098: KLK5 inhibitory peptide (SPINK2 mutant), amino acid sequence SEQ ID NO: 20 (protein)
chain: B1 chain with G16T, R17S, Y18Q, T20L, G22S, N24S, K25R, E28D
B8: K50015: KLK5/KLK14 inhibitory peptide (SPINK2 mutant), amino acid sequence SEQ ID NO: 32 (protein)
chain: B1 chain with G16Y, R17D, Y18T, G21H, G22Y, N24S, K25R, E28D
B9: K51057: KLK5/KLK7 inhibitory peptide (SPINK2 mutant), amino acid sequence SEQ ID NO: 28 (protein)
chain: B1 chain with R17T, Y18M, T19Q, T20G, G21S, N24T, K25Y, E26H
B10: K50031: KLK5/KLK7 inhibitory peptide (SPINK2 mutant), amino acid sequence SEQ ID NO: 26 (protein)
chain: B2 chain with D16G, I18Y, G19K, K20G, Y21R, G24Y, R25Y, S26H
B11: K51005: KLK5/KLK7 inhibitory peptide (SPINK2 mutant), amino acid sequence SEQ ID NO: 24 (protein)
chain: GPQFGLFSKYRTPNCMQHARQGCHYDYDPVCGSDMSTYANECTLCMKIREGGHNIKIIRNGPCGG
B12: K51069: KLK5/KLK14 inhibitory peptide (SPINK2 mutant), amino acid sequence SEQ ID NO: 30 (protein)
chain: B4 chain with W18V, Q19V, Y20E, S21T, S22Y, D24N, V26D
B13: K50062: KLK5 inhibitory peptide (SPINK2 mutant), amino acid sequence SEQ ID NO: 16 (protein)
chain: B2 chain with D16Q, E17Q, I18Y, G19R, K20E, Y21L, S26Q
B14: K51072: KLK5 inhibitory peptide (SPINK2 mutant), amino acid sequence SEQ ID NO: 10 (protein)
chain: GPQFGLFSKYRTPNCQEDMTEYCARDFDPVCGSDMSTYANECTLCMKIREGGHNIKIIRNGPCGG

Target: T1, KLK5
Assay: X-ray crystal structure analysis of KLK5/KLK5 inhibitory peptide complex
Conditions: resolution 1.8 Å
Method: According to the methods described in (1-2) and (2-2), KLK5 inhibitory peptides K51034 and KLK5 having the amino acid sequences shown by the SEQ ID numbers were prepared. After mixing the two under conditions of 50 mM Tris-HCl, 150 mM NaCl, and pH 8.0, a complex was isolated and purified by gel filtration chromatography (Superdex 200 10/300 GL).
The complex solution prepared in (4-1) was concentrated to 12 mg/mL, thereafter mixed with a reservoir solution (0.2 M Magnesium Chloride hexahydrate, 20% PEG3350) at a ratio of 1:1, and crystallized by a vapor diffusion method. The obtained cubic single crystal was immersed in a reservoir solution containing 20% glycerol and thereafter frozen in liquid nitrogen. The frozen crystals were irradiated with X-rays in a cryo-stream to obtain a diffraction image (Hypixel 6000HE/MicroMax007). Scaling data with a maximum resolution of 1.7 Å was obtained by analysis using CrysAlisPro. The phase was determined by the molecular replacement method using KLK5 alone (PDB ID: 2PSX) and SPINK2 alone (PDB ID: 2JXD) as templates. After structural refinement, complex crystals of KLK5/the peptide K51034 were determined at a resolution of 1.8 Å. One molecule each of KLK5 and SPINK2 was contained in a unit cell. […]

Molecule	binding site on KLK5 in complex crystal
B1	bound to a region containing the KLK5 enzyme's active site

Target: T1, KLK5
Assay: KLK5 binding activity of KLK5 inhibitory peptide, surface plasmon resonance (biotinylated KLK5 captured, peptide as analyte)
Conditions: BIAcore T 200, single cycle kinetics
Method: In order to measure the binding affinity of the KLK5 inhibitory peptides, surface plasmon resonance analysis was conducted using BIAcore T 200 (GE healthcare). A complementary strand of DNA of a streptavidin conjugate was captured by hybridization on Sensor Chip CAP (GE healthcare) on which single-stranded DNA immobilized. Next, KLK5 biotinylated using EZ-Link NHS-PEG4-Biotin (Thermo Fisher Scientific) was captured at a flow rate of 10 μL/min to immobilize about 10 RU. Thereafter, the KLK5 inhibitory peptide, serially diluted 2-fold with HBS-EP (0.625 to 10 nM), was added thereto as an analyte at a flow rate of 30 μL/min. In the BIAcore T 200 Evaluation software (version 2.0), kon and koff were calculated by analysis using Single cycle kinetics in a simple one-to-one Langmuir binding model. The dissociation constant KD was calculated as a ratio of koff/kon. Further, multiple KLK5 inhibitory peptides were measured by regenerating Sensor Chip CAP using a Regeneration buffer attached to a Biotin CAPture Kit (GE healthcare) and repeatedly capturing biotinylated KLK5.

Koff [s⁻¹]	Molecule
5.7e-05	B2
1.8e-05	B3
0.00029	B4
0.00027	B5
3.5e-05	B1
2e-05	B6
1.8e-05	B7
1e-06	B8
0.0015	B9
5e-05	B10
0.0012	B11
1e-06	B12
2.9e-06	B13
2.2e-05	B14

Target: T2, human KLK14
Assay: Human KLK14 inhibitory activity, peptide substrate degradation
Type: biochemical
Conditions: KLK5 inhibitory peptide; hKLK14 0.2 μg/mL, substrate 100 μM
Method: The substrate peptide was dissolved in DMSO to 10 mM and diluted with an assay buffer (50 mM Tris-HCl, 150 mM NaCl, pH 8.0) for use. 25 μL each of human/mouse KLK5, human/mouse KLK7, or human/mouse KLK14 and the inhibitory peptide diluted with the assay buffer were mixed, followed by a reaction at 37° C. for 20 minutes. Thereafter, 50 μL of a substrate diluted with the assay buffer was added thereto, and the fluorescence signal was measured using Enspire (PerkinElmer). The combinations of the enzyme and the substrate used were as follows.
Evaluation of Human KLK14 inhibitory activity: hKLK14 with a final concentration of 0.2 μg/mL, a substrate peptide Boc-Val-Pro-Arg-AMC with a final concentration of 100 μM (R&D Systems, Inc.), and a fluorescence signal with excitation at 380 nm/emission at 460 nm
The average value of three independent experiments was used to calculate the IC50 value.
According to the method described in Example 3-1, the inhibitory activities of each KLK5 inhibitory peptide Fc fusion against human/mouse KLK5, human/mouse KLK7, and human/mouse KLK14 were evaluated. […] The average value of three independent experiments was used to calculate the IC50 value.

IC50 [nM]	Molecule
> 1000	B11
